pKd: −log10 of the molar value.
Biological target: dengue poly-immunoglobulin G scaffold (D-PIGS), unfractionated, from ∆XF N. benthamiana
Assay: SPR; Biacore X100, affinity layout: 200 RU of D-PIGS (unfractionated) or hIgG1 captured on immobilised protein A (CM5 chip); CD16a or CD64 injected as analyte, 12.5 to 800 nM, contact 60 s, 50 uL/min, dissociation 200 s; two-state model for CD16a, 1:1 model for CD64

How did the pKd turn out when “recombinant human CD16a (from UniProt P08637 17-208) (receptor)” was run?
Its pKd is 7.61.

Source: paper PMC5999314
